Test system: FLAG-YAP
Assay: In vitro protein pull-down assay
Type: binding
Conditions: recombinant GST-SOX9 20 μM and FLAG-YAP 20 μM, FLAG beads, overnight at 4 °C
Protocol: FLAG-YAP protein (20 μM) purified from SF9 was incubated with 20 μM GST-SOX9 protein (Abcam, ab131911), GST protein, or blank control in the presence of FLAG beads (Sigma-Aldrich, A2220) overnight at 4 °C. Following this, the beads were washed two times in binding and wash buffer (20 mM Tris [pH 8.0], 150 mM NaCl, 0.5% NP40, 0.5% TritonX-100, 1 mM DTT, and 10% glycerol), and one wash with high salt buffer (20 mM Tris [pH 8.0], 250 mM NaCl, 0.5% NP40, 0.5% TritonX-100, 1 mM DTT, and 10% glycerol). The slurry was boiled with SDS buffer and then subjected to immunoblot.

B1: SOX9: recombinant GST-SOX9 protein (Abcam, ab131911) (protein)
chain: MNLLDPFMKMTDEQEKGLSGAPSPTMSEDSAGSPCPSGSGSDTENTRPQENTFPKGEPDLKKESEEDKFPVCIREAVSQVLKGYDWTLVPMPVRVNGSSKNKPHVKRPMNAFMVWAQAARRKLADQYPHLHNAELSKTLGKLWRLLNESEKRPFVEEAERLRVQHKKDHPDYKYQPRRRKSVKNGQAEAEEATEQTHISPNAIFKALQADSPHSSSGMSEVHSPGEHSGQSQGPPTPPTTPKTDVQPGKADLKREGRPLPEGGRQPPIDFRDVDIGELSSDVISNIETFDVNEFDQYLPPNGHPGVPATHGQVTYTGSYGISSTAATPASAGHVWMSKQQAPPPPPQQPPQAPPAPQAPPQPQAAPPQQPAAPPQQPQAHTLTTLSSEPGQSQRTHIKTEQLSPSHYSEQQQHSPQQIAYSPFNLPHYSPSYPPITRSQYDYTDHQNSSSYYSHAAGQGTGLYSTFTYMNPAQRPMYTPIADTSGVPSIPQTHSPQHWEQPVYTQLTRP
  direct interaction with YAP (pull-down): demonstrated the direct interaction between SOX9 and YAP
